We go through 5 molecules from patent US20220119522A1 (DENALI THERAPEUTICS, published 2022).

Where a chain is given by its changes, count along the chain named. No end group written: not given here.

To fix the notation:
T1: human TREM2 on the cell surface (human, UniProt Q9NZC2 19-230)
T1 construct: also called surface TREM2; TREM2 expressed in HEK293-H6 cells
T1 sequence: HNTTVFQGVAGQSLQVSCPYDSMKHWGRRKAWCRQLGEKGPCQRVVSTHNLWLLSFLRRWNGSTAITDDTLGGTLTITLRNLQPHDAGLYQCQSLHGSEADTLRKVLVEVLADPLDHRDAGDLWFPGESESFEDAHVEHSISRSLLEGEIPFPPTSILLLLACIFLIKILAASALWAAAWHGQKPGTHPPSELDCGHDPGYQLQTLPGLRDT

T2: His-tagged human TREM2 ECD (human, UniProt Q9NZC2 19-172)
T2 construct: Biacore and HDX say only recombinant human TREM2 (ECD); also called recombinant human TREM2; hTREM2
T2 sequence: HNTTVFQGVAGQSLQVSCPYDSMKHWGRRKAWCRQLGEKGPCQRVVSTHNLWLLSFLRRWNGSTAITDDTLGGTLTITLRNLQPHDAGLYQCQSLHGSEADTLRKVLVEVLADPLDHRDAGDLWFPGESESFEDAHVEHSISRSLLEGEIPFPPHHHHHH

T3: mouse TREM2 full length stalk region peptide (aa 131-169) (mouse, UniProt Q99NH8 131-169, biotinylated (site not stated))
T3 peptide (looked up): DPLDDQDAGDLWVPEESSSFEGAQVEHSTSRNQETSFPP

T4: human TREM2 full length stalk region peptide (aa 129-172) (human, biotinylated (site not stated))
T4 construct: also called Human TREM2 peptide (aa 129-172); full-length TREM2 stalk peptide
T4 peptide: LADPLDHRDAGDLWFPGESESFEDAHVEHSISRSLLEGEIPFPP

T5: human TREM2 truncated stalk peptide (aa 149-163) (human, also: biotinylated (site not given here))
T5 construct: also called Human TREM2 peptide (aa 149-163); truncated stalk peptide containing the ADAM10/17 cleavage site
T5 peptide: SFEDAHVEHSISRSL

B1: CL0020314 (antibody, V domains shown)
VH: DVKLVESGGGLVKLGGSLKLSCAASGFTFSSYYMSWVRQTPEKRLELVAAINTNGGRTYYPDTVKGRFTISRDNAKNTLYLQMSSLKSEDTALYYCARESDGGAFAYWGQGTLVTVSA
VL: DVVMTQTPLSLPVSLGDQASISCRSSQSLVHSNGNTYLHWYLQKPGQSPKLLIYKVSNRFSGVPDRFSGSGSGTDFTLKISRVEAEDLGVYFCSQNTHVPLTFGAGTKLELK
notes: also called Clone CL0020314
B2: CL0020315 (antibody, V domains shown)
VH: EVQLQQSGPELVKPGASVKISCKASGYTFTDYNIHWVKQSHGKSLEWIGYIYPYNGVTGYNQKFKSKATLTVDNSSSTAYMELRSLTSEDSAVYYCARSRVDGDYWGQGTTLTVSS
VL: B1 VL with V56I, N96S
notes: also called Clone CL0020315
B3: CL0020313 (antibody, V domains shown)
VH: QVQLKQSGPGLLQPSQSLSITCTVSGFSLTSYGVHWVRQSPGKGLEWLGVIWSGGITLYNAAFMSRLSITKDNSKSQVFFKMNSLQADDTAIYYCAKVGYGSSSDYWGQGTTLTVSS
VL: DVLMTQSPLSLPVSLGDQASFSCRSSQSIVHSNGNTYLEWYLQKPGQSPKLLIYKVSNRFSGVPDRFSGSGSGTDFTLKISRVEAEDLGVYYCFQGSHVPFTFGSGTKLEIK
notes: also called Clone CL0020313
B4: CL0020139 (antibody, V domains shown)
VH: EVQLQQSGPELVKPGASVKMSCKAPGYSFTSYLMNWVKQKPGQGLEWIGYINPYSAGSNYNEKFKDKATLTSDKSSSTAYMELRSLTSEDSAVYFCARSSYRYGFDYWGQGTTLTVSS
VL: DIQMTQSSSSFSVSLGDRVTITCKASEDIYNRLAWYQQKPGNAPRLLISGATSLETGVPSRFSGSGSGKDYTLSITSLQTEDVATYSCQQYWSTPWTFGGGTKLEIK
notes: also called Clone CL0020139
B5: CL0020123 (antibody, V domains shown)
VH: EVQLQQSGAELVRSGASVKLSCTASGFSIEDFYIHWVKQRPEQGLEWIGWIDPENGDSKYAPKFQGKATMTADTSSNTAYLHLSSLTSEDTAVYYCHADHGNYGSTMDYWGQGTSVTVSS
VL: DIQMNQSPSSLSASLGDTVTITCHASQHINVWLSWYQQKPGDHPKLLIYKASNLHTGVPSRFSGSGSGTGFTLTISSLQPEDIATYYCQQGQTYPRTFGGGTKLEIK
notes: also called Clone CL0020123

The target of the first assay is T1, human TREM2 on the cell surface. The experiment in a line: cell binding, human macrophages, dose titration.
For the molecule B1, the EC50 was 0.05 nM.

With B2, the 50% effective concentration (EC50) was 5.6 nM.

Regarding B3, the EC50 is 1.2 nM.

B4 registered an EC50 of 1.6 nM.

The molecule B5 returned a concentration giving a half-maximal response (EC50) of 0.3 nM.

Another assay deals with T6, recombinant cynomolgus TREM2 ECD (cynomolgus).
T6 construct: extracellular domain; also called cyno TREM2
The experiment in a line: SPR (Biacore), antibody captured via anti-human Fab, recombinant TREM2 ECD injected, 1:1 fit. Summed up:
(§1)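 Antibodies captured on a CM5 chip via anti-human Fab, then 3-fold serial dilutions of recombinant human or cynomolgus TREM2 ECD injected at 30 μL/min in HBS-EP+. Association 300 s, dissociation 600+ s, blank-cell subtracted; kon and koff from simultaneous 1:1 Langmuir fit.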
In the case of B1, the dissociation constant Kd came out at 56.9 nM.

As for B2, the Kd was 2.52 nM.

As to B3, the dissociation constant (Kd) was determined as 13.8 nM.

Consider B4, for which the equilibrium dissociation constant (Kd) was 0.3 nM.

Take B5: the Kd amounted to 5.7 nM.

The target in another assay is T2, His-tagged human TREM2 ECD. The assay is described as above. In a few lines: as §1
Take B1: the equilibrium dissociation constant (Kd) is 0.33 nM.

As to B2, the dissociation constant Kd turned out to be 0.0259 nM.

For the molecule B3, the equilibrium dissociation constant (Kd) amounted to 14 nM.

Regarding B4, the equilibrium dissociation constant (Kd) stood at 1.6 nM.

For B5, the dissociation constant Kd turned out to be 0.068 nM.

The next assay has as its target T1, human TREM2 on the cell surface. Description: cell-based or functional assay.
On to B1, for which the “Survival EC50 (nM), plate coated mAb, human macrophages” value (from here on “Survival EC50 (nM), plate coated mAb”) came out at 1.6 nM and the “pSyk activation (HEK293-H6) EC50 (nM)” value amounted to 18.8 nM.

For B2, the “NFAT EC50 (nM), plate coated mAb” value is 72.7 nM and the “Survival EC50 (nM), plate coated mAb” value was found to be 10.1 nM.

In the case of B3, the “Survival EC50 (nM), plate coated mAb” value stood at 30.7 nM and the “pSyk activation (HEK293-H6) EC50 (nM)” value was determined as 46.6 nM.

In the case of B4, the “NFAT EC50 (nM), plate coated mAb” value amounted to 30.8 nM; the “Survival EC50 (nM), plate coated mAb” value was 1.8 nM; the “pSyk activation (human macrophages) EC50 (nM)” value was 23.8 nM.

For the molecule B5, the “Survival EC50 (nM), plate coated mAb” value came out at 44.7 nM and the “pSyk activation (human macrophages) EC50 (nM)” value is 7 nM.

The next assay deals with T2, His-tagged human TREM2 ECD. The experiment in a line: SPR (Biacore). The procedure: Surface plasmon resonance (Biacore™ 8K instrument) was used to measure anti-TREM2 antibody affinities for human and cynomolgus TREM2 ECD. Anti-TREM2 antibodies were captured using Human Fab Capture Kit (GE Healthcare Life Sciences, Catalog No. 28958325) on a Biacore Series S CM5 sensor chip (GE Healthcare Life Sciences, Catalog No. 29149604). Serial 3-fold dilutions of recombinant human or cynomolgus TREM2 were injected at a flow rate of 30 μL/min. Antibody binding was monitored for 300 seconds, followed by monitoring of antibody dissociation for 600+seconds in HBS-EP+ running buffer (GE Healthcare Life Sciences, Catalog No. BR100669). The binding response was corrected by subtracting the RU value from a blank flow cell. A 1:1 Languir model of simultaneous fitting of kₒₙ and koff was used for kinetics analysis.
(§2) Sequence optimization was conducted by searching within CDR sequences for residues that are susceptible to chemical modification (e.g., asparagine deamidation motifs (NG), aspartic acid isomerization motifs (DS), and potential oxidation residues (tryptophan (W) and methionine (M)) and making amino acid substitutions with conservative and germline residues to remove such sequence liabilities. Humanized and sequence-optimized variants of anti-TREM2 antibodies were then analyzed for binding kinetics using Biacore and dose-titrated cell binding to HEK293-H6 cells (see, Example 1 for representative protocols).
For orientation: SPR reads the build-up and loss of mass on a sensor chip optically.
For B5, the equilibrium dissociation constant (Kd) worked out at 0.1 nM.

The next assay deals with T1, human TREM2 on the cell surface. Description: flow cytometry, dose-titrated binding to HEK293-H6 cells. The procedure: After incubation, the cells were centrifuged and washed in FACS buffer (PBS+0.5% BSA) twice. Mixed cells were resuspended in FACS buffer with human Trustain FcX solution (Biolegend, Catalog No. 422302) at a density of 10⁶/mL per cell line. The mixed cell lines were seeded at 200,000 cells per well in a 96-well round-bottom plate and incubated for 20 minutes at room temperature. After incubation, the cells were centrifuged and incubated with anti-TREM2 antibodies of about 0-200 nM dose titration for 45 minutes on ice. After incubation, the cells were centrifuged and washed with FACS buffer three times. […] After incubation, the cells were washed with FACS buffer three times, resuspended in 100 μL of FACS buffer, and analyzed by flow cytometry (BD FACSCanto II, San Jose, Calif.), for which 30,000 events were obtained for each sample. Mean fluorescence intensity per cells were calculated by FlowJo software and used for generating dose response binding curve.
as §2
The molecule B5 showed an EC50 of 0.26 nM.

In the next assay the target is T3, mouse TREM2 full length stalk region …. The experiment in a line: ELISA on biotinylated peptide captured by streptavidin; A450 normalised to isotype control. Summed up:
(§3)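 Sandwich ELISA: biotinylated TREM2 stalk peptides captured on streptavidin-coated plates, antibodies added for 1 h in 1% BSA/PBS, binding detected with anti-human kappa-HRP and TMB at A450. Values expressed as fold over isotype-control background.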
(ELISA stands for enzyme-linked immunosorbent assay.)
In the case of B1, the “fold over background (A450)” value amounted to 1 fold.

As to B2, the “fold over background (A450)” value stood at 6.8 fold.

Take B4: the “fold over background (A450)” value was 1.4 fold.

Regarding B5, the “fold over background (A450)” value came to 1 fold.

A further assay concerns the target T4, human TREM2 full length stalk region …. The description is as above. In a few lines:
as §3
Turning to B1, the “fold over background (A450)” value stood at 11 fold.

On to B2, for which the “fold over background (A450)” value was found to be 8.7 fold.

Take B3: the “fold over background (A450)” value stood at 12 fold.

Regarding B4, the “fold over background (A450)” value turned out to be 1.6 fold.

As to B5, the “fold over background (A450)” value stood at 1.2 fold.

Another assay concerns the target T5, human TREM2 truncated stalk peptide (aa …). Described as above. Summed up:
as §3
As for B1, the “fold over background (A450)” value is 1.2 fold.

Turning to B2, the “fold over background (A450)” value was 1.3 fold.

For the molecule B3, the “fold over background (A450)” value was found to be 1.2 fold.

As for B4, the “fold over background (A450)” value worked out at 1.3 fold.

As to B5, the “fold over background (A450)” value was 1.2 fold.

Usually EC50 stands for the concentration needed to bring the measured effect to its halfway point. Read a high EC50 as a need for much substance. One may read the Kd as the constant that tells how readily two partners part at equilibrium.
